Variants at the floor of the assay were thinned out.
B1: TPR 5TU (parent)
chain: GGAUCUUCUCGAUCUAACAAAAAAGACAAAUCUGCCACAAAGCUUGAGAGCAUCUUCGGAUGCAGAGGCGGCAGCCUUCGGUGGCGCGAUAGCGCCAACGUUCUCAACUAUGACACGCAAAACGCGUGCUCCGUUGAAUGGAGUUUAUCAUG

Variants of: B1
Experiment: polymerase ribozyme fitness, log enrichment relative to wild type (log ratio); higher = more active; in vitro selection for triplet polymerase activity
How it was run: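 Fitness compares each genotype's enrichment to that of the wild type on a logarithmic scale, averaging replicates with inverse-variance weights. The logarithm is base 2. Enrichment came from Illumina sequencing of input and output libraries after one triplicate round of in vitro selection, which included frozen incubation at −7 °C, of PCR-built, transcribed mutant libraries of each subunit of a heterodimeric triplet polymerase ribozyme. Only genotypes with ≥10 input reads and ≥1 read per output were kept.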
With C18U C36A C38A U55A G84U the “polymerase ribozyme fitness (log ratio)” value was no more than -4.2.
With A17G C85U the “polymerase ribozyme fitness (log ratio)” value was -1.27.
In the case of C18G C32G U55A G83U G88U A113C A138C, the “polymerase ribozyme fitness (log ratio)” value is reported as no more than -4.2.
With C18G U61C C85G C95U the “polymerase ribozyme fitness (log ratio)” value was no more than -4.2.
With A19C G62A C85A A137U U151A the “polymerase ribozyme fitness (log ratio)” value was no more than -4.2.
For C18U G48U C85A U144C, the “polymerase ribozyme fitness (log ratio)” value was -2.83.
In the case of C18G C35U U55A G62U G68U C75U C96U, the “polymerase ribozyme fitness (log ratio)” value is reported as no more than -4.2.
In the case of A19G C85A G86U C93U U148A, the “polymerase ribozyme fitness (log ratio)” value is reported as no more than -4.2.
With A17U A21G A40G U55A A60G C95A U146C the “polymerase ribozyme fitness (log ratio)” value was -2.4.
In the case of C18G C27G U53G A120C, the “polymerase ribozyme fitness (log ratio)” value is reported as no more than -4.2.
With C18G A20C U56G G94A the “polymerase ribozyme fitness (log ratio)” value was -1.51.
For A17G A39U G94U G141A, the “polymerase ribozyme fitness (log ratio)” value was -4.08.
In the case of C18G A21U C93U G141U, the “polymerase ribozyme fitness (log ratio)” value is reported as 0.314.
In the case of A17U A24U A52G C57U C96G G140A, the “polymerase ribozyme fitness (log ratio)” value is reported as no more than -4.2.
For C18U G34C U44A C75G C96A C99G A119C, the “polymerase ribozyme fitness (log ratio)” value was no more than -4.2.
For C18G A41U A91G U148G, the “polymerase ribozyme fitness (log ratio)” value was no more than -4.2.
In the case of A19G C38U A40C C79A G86U C96G, the “polymerase ribozyme fitness (log ratio)” value is reported as no more than -4.2.
In the case of C18G C32U G46C U53A C85U, the “polymerase ribozyme fitness (log ratio)” value is reported as no more than -4.2.
With C18G C54U U61G C87U C95U the “polymerase ribozyme fitness (log ratio)” value was -3.85.
For A17U C69G G80C A107U C131U U145G, the “polymerase ribozyme fitness (log ratio)” value was no more than -4.2.
With A19C G65U A73U G88A C114A U148C the “polymerase ribozyme fitness (log ratio)” value was no more than -4.2.
With A17U C85U the “polymerase ribozyme fitness (log ratio)” value was -1.68.
For C18U G140U, the “polymerase ribozyme fitness (log ratio)” value was -3.29.
For C18A C36A G58A A64U C85A, the “polymerase ribozyme fitness (log ratio)” value was no more than -4.2.
In the case of C18A A20U G25C G83A C87U U145A C149A, the “polymerase ribozyme fitness (log ratio)” value is reported as no more than -4.2.
With C18G C38U C72U the “polymerase ribozyme fitness (log ratio)” value was -0.0428.
For A17U A98U, the “polymerase ribozyme fitness (log ratio)” value was -1.12.
For C18G C96U A119U, the “polymerase ribozyme fitness (log ratio)” value was -0.786.
In the case of A17U A24C C32A G100A, the “polymerase ribozyme fitness (log ratio)” value is reported as no more than -4.2.
With A19G A40C G48U U61A G74C C87A G126U the “polymerase ribozyme fitness (log ratio)” value was no more than -4.2.
In the case of A17U C108U, the “polymerase ribozyme fitness (log ratio)” value is reported as -3.48.
With A19G G48A G62U A73G C96A A119G the “polymerase ribozyme fitness (log ratio)” value was no more than -4.2.
With A19G C75U C93A the “polymerase ribozyme fitness (log ratio)” value was -3.68.
In the case of A19C U31A G92U, the “polymerase ribozyme fitness (log ratio)” value is reported as 0.391.
In the case of C18G C57A A147U, the “polymerase ribozyme fitness (log ratio)” value is reported as 0.567.
With A19C the “polymerase ribozyme fitness (log ratio)” value was 0.425.
For A19G, the “polymerase ribozyme fitness (log ratio)” value was -0.472.
In the case of A17U A28U G83U C96A C99U C132G, the “polymerase ribozyme fitness (log ratio)” value is reported as no more than -4.2.
For A19C C54G G94U U111A A115C C125U, the “polymerase ribozyme fitness (log ratio)” value was no more than -4.2.
With C18U G92U A97G U146A the “polymerase ribozyme fitness (log ratio)” value was -2.16.
With C18G G83U C95U the “polymerase ribozyme fitness (log ratio)” value was -2.08.
For A17C U33A A73U C96U G128A G140A U146G, the “polymerase ribozyme fitness (log ratio)” value was -3.99.
For C18U A26C C38U U78G A98U U145G U151A, the “polymerase ribozyme fitness (log ratio)” value was no more than -4.2.
For C18G G42C C87U A138C U145A, the “polymerase ribozyme fitness (log ratio)” value was no more than -4.2.
In the case of A17U C35U A40U G92U, the “polymerase ribozyme fitness (log ratio)” value is reported as -2.32.
For A17C U31G G48A U53A G80C C85U G133U G140U A142U G152U, the “polymerase ribozyme fitness (log ratio)” value was no more than -4.2.
For A17U A37U C96A C99U A113C U134G G152C, the “polymerase ribozyme fitness (log ratio)” value was -4.19.
With C18U A30U C99G A106U the “polymerase ribozyme fitness (log ratio)” value was no more than -4.2.
With A19C A28C A52G U56A G83A A142C the “polymerase ribozyme fitness (log ratio)” value was no more than -4.2.
With A17U A28C U31A the “polymerase ribozyme fitness (log ratio)” value was -3.71.
For A17G C57U G94C U139C U144A, the “polymerase ribozyme fitness (log ratio)” value was no more than -4.2.
In the case of A19G U55G C57G A97G A106C, the “polymerase ribozyme fitness (log ratio)” value is reported as -2.96.
For A19G C27U C35A A73G U77A G80C, the “polymerase ribozyme fitness (log ratio)” value was no more than -4.2.
With A17G A39G C79G A89U C96G the “polymerase ribozyme fitness (log ratio)” value was -4.19.
With A17U A30C C35A U55G U109A the “polymerase ribozyme fitness (log ratio)” value was -4.11.
In the case of C18U U45C A120C, the “polymerase ribozyme fitness (log ratio)” value is reported as -0.849.
For A17U A39C G80A G86U G117U U144C U148G, the “polymerase ribozyme fitness (log ratio)” value was no more than -4.2.
With C18U C87U C99G the “polymerase ribozyme fitness (log ratio)” value was -2.1.
With A19C C57A the “polymerase ribozyme fitness (log ratio)” value was 0.797.
In the case of A19G A20U U55A C87A C131U U148A, the “polymerase ribozyme fitness (log ratio)” value is reported as no more than -4.2.
With A19G U45G U90G G124A the “polymerase ribozyme fitness (log ratio)” value was no more than -4.2.
With A17G C69A U82G G86C G117U G140C U145A the “polymerase ribozyme fitness (log ratio)” value was no more than -4.2.
For C18A G50A G68A C96G C99U G136A, the “polymerase ribozyme fitness (log ratio)” value was no more than -4.2.
In the case of A19G G92A G124U, the “polymerase ribozyme fitness (log ratio)” value is reported as -3.61.
In the case of A19C C51G U55G C93U G126C, the “polymerase ribozyme fitness (log ratio)” value is reported as -2.57.
In the case of A19G C57U G65A U102A G126U, the “polymerase ribozyme fitness (log ratio)” value is reported as -3.89.
In the case of A17U U44A U55G G136A, the “polymerase ribozyme fitness (log ratio)” value is reported as no more than -4.2.
For A19C G50A, the “polymerase ribozyme fitness (log ratio)” value was -1.01.
With A19G U53A C57U C96A G100C U134C G143C the “polymerase ribozyme fitness (log ratio)” value was no more than -4.2.
With C18U C38G A52G U101G the “polymerase ribozyme fitness (log ratio)” value was -1.69.
In the case of A17C U53G G62U G117U, the “polymerase ribozyme fitness (log ratio)” value is reported as -2.27.
In the case of A19G A20G C43U A47C U55G C87U C105U U145G, the “polymerase ribozyme fitness (log ratio)” value is reported as no more than -4.2.
In the case of C18G A40U A47U U101G, the “polymerase ribozyme fitness (log ratio)” value is reported as -0.397.
In the case of C18G A21U C35U C95U, the “polymerase ribozyme fitness (log ratio)” value is reported as -1.12.
In the case of A17U G62U G84U, the “polymerase ribozyme fitness (log ratio)” value is reported as -2.48.
In the case of A17G C27G C43U C87G A89C U109A A147U, the “polymerase ribozyme fitness (log ratio)” value is reported as no more than -4.2.
For A17U A26U A47C A49C G83C C85G, the “polymerase ribozyme fitness (log ratio)” value was no more than -4.2.
In the case of C18U G74C C96A, the “polymerase ribozyme fitness (log ratio)” value is reported as no more than -4.2.
With A19G G84A U146C the “polymerase ribozyme fitness (log ratio)” value was -0.526.
In the case of A19G A26U C36G A73U C87A G88C A97G, the “polymerase ribozyme fitness (log ratio)” value is reported as no more than -4.2.
In the case of C18G G58C G81A, the “polymerase ribozyme fitness (log ratio)” value is reported as -0.953.
For A17G A23U C79G, the “polymerase ribozyme fitness (log ratio)” value was no more than -4.2.
In the case of A19C C35U A52C U53A C79A A97U A98G C118A U139G A147G, the “polymerase ribozyme fitness (log ratio)” value is reported as no more than -4.2.

From the RNAGym collection of RNA variant scans (doi:10.1073/pnas.2313332121)
